According to the supplement of paper PMC12764529:
± gives the half width of the 95% confidence interval.

Columns and labels:
[1] = folding stability dG unfold (combined trypsin and chymotrypsin); higher = more stable
In short: (§1)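 Mini-proteins designed to be under 80 residues and free of cysteine were carried in a PA-tagged cDNA display construct and digested with trypsin and with chymotrypsin. Each protease was applied at 11 threefold-diluted concentrations, alongside a no-protease condition, before sequencing. K50 came from Bayesian fitting of the sequencing counts, and unfolding free energy was obtained by comparing it with a sequence-predicted unfolded-state K50 and a shared folded-state K50, for each protease separately or for both together. Designs were retained only if their AlphaFold2 dimer inter-PAE exceeded 15.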

[2] = folding stability dG unfold from chymotrypsin proteolysis; higher = more stable
In short: as §1

[3] = folding stability dG unfold from trypsin proteolysis; higher = more stable
In short: as §1

Sequence | folding stability dG unfold [1] [kJ/mol] | folding stability dG unfold [2] [kJ/mol] | folding stability dG unfold [3] [kJ/mol]
SAGGSAGGSGVEITLPNKDELIEYLKKKFAEKGGKIKKIKIEPIGPNMYKALIETDPNDPYFKSAGGSAGGS [r12_647_TrMRF] | 2.56 ± 0.544 | 2.23 ± 0.711 | 3.18 ± 0.289
SAGGSAGGSGYTTTTSTSISLSPTSFTVTTTTTTTDPVTKTTTVTTTTTTVPLPPSLLSLVSSSAGGSAGGS [r12_885_JUSTAS] | 10.5 ± 0.837 | 12.4 ± 0.218 | 9.25 ± 0.711
SAGGSAGGSIEIFKSPEGWYVRIWFPGKPQVIPIDDAEDLKNFEIPIPNGRPIKVEILPPKDLSAGGSAGGS [r12_730_TrROS] | 8.89 ± 0.247 | 9.69 ± 0.134 | 6.95 ± 0.197
SAGGSAGGSIFIHWTYEMEHERDPDDPDEPRMKMKIKDWVISIPEDDPDKLKELADKLGIPIISAGGSAGGS [r12_249_TrROS] | 5.19 ± 0.46 | 7.09 ± 0.285 | 2.41 ± 0.364
SAGGSAGGSIKIPPGQMIHIRYEHGGKKREYSFTIDPNDGKIDEIIPPDNLPGYKIEEIHIVPSAGGSAGGS [r12_6_TrROS] | 1.29 ± 1.42 | 3.05 ± 1.26 | -1.8 ± 1.38
SAGGSAGGSIKITIYDIMRMLGPNAPPAEWVEKVKHLAKWLADKLGLPDVEIEVEVMSPDQFPSAGGSAGGS [r12_666_TrROS] | 17 ± 0.711 | 18.8 ± 0.544 | 13.8 ± 1.05
SAGGSAGGSILVIKIKFPGNGRPIHYPIKDPEDFDRVLKKAKERFPGYDKDNIKEAEIYPLPPSAGGSAGGS [r12_852_TrROS] | -0.291 ± 0.711 | -0.0288 ± 1.21 | -1.82 ± 0.92
SAGGSAGGSISIDPAKVLEVKTRANGQLLITTEDEVYVVDPSTGTVTKITKEEAEKLPEDVPLLSAGGSAGG [r6_890_JUSTAS] | 8.21 ± 0.628 | 8.11 ± 0.155 | 7.97 ± 0.176
SAGGSAGGSITPEEAKALAEEIKKALGVPDVEVLEIRVERDPERDFYTADIVIRLPDGSVIRASAGGSAGGS [r12_508_TrMRF] | 7.12 ± 0.46 | 4.35 ± 0.268 | 8.56 ± 0.213
SAGGSAGGSITVEVEVEIVDEVEDPNTQGYRPVRVSRIPITIPVPESWSEEDIEAAVKEAIEKASAGGSAGG [r6_494_JUSTAS] | 7.11 ± 0.628 | 8.89 ± 0.092 | 4.62 ± 0.197
SAGGSAGGSIVFRSPEQAKEWLDNFPPGNEVNIHVQGPDTGQPQEFEIKIPPPKPEYDPDGKPSAGGSAGGS [r12_393_TrROS] | -0.708 ± 1.34 | -3.24 ± 2.26 | -0.518 ± 0.368
SAGGSAGGSKAGQPIEGPVKIKFTSNGKPHEIDVEVYVLPPGNLIIYFPDESIMLPADNIEIESAGGSAGGS [r12_790_TrROS] | 6.69 ± 0.264 | 7.98 ± 0.326 | 4.57 ± 0.301
SAGGSAGGSKEEIRKRIAERLRELIPDAKITSIEFDEKTKKITITVDSPEVREALEKLPGIKPSAGGSAGGS [r12_623_TrROS_Hall] | 6.39 ± 0.46 | 6.82 ± 0.368 | 6.25 ± 0.155
SAGGSAGGSKEKVIEIKIKVKTKEEAKKKAEELAKELEKKGYKIKKVEIKYDKETKEVTVRIESAGGSAGGS [r20_155_TrROS_Hall] | 16.5 ± 0.502 | 16.8 ± 0.406 | 16.3 ± 0.837
SAGGSAGGSKEKYIKIVVEVNGEKKVIVVKAKTIEELEELAKKLNLEVEIEKREDGYLVIRLKSAGGSAGGS [r12_810_TrROS_Hall] | 13.8 ± 0.243 | 14 ± 0.243 | 13.4 ± 0.222
SAGGSAGGSKELLKNLPPGAKITVEKKEDGTVRITITNKDGSEKEIEIKVNGKIIKLTIKKKPSAGGSAGGS [r20_50_TrROS_Hall] | 4.34 ± 1.34 | 1.03 ± 1.76 | 8.53 ± 0.41
SAGGSAGGSKETLTIKIKVEVKDENGEKKEVTVTLTIKAETKEEAEALLKELKEKYPNVKVEPSAGGSAGGS [r12_1043_TrROS_Hall] | 12.3 ± 0.962 | 12.1 ± 0.46 | 11.3 ± 1.59
SAGGSAGGSKGKKITIILPPGMPPDAIKNWLAPLGINITIEPIPVVKPKRDPDDGEETYEPYGSAGGSAGGS [r12_80_TrROS] | 2.42 ± 0.837 | 2.49 ± 1 | 3.05 ± 0.418

Sequence | folding stability dG unfold [1] [kJ/mol] | folding stability dG unfold [2] [kJ/mol] | folding stability dG unfold [3] [kJ/mol]
SAGGSAGGSKITSIEEKDGFVRITIEVDGKTETKTIPKENLPPNITFPPGAKVKIEKVSKEDLSAGGSAGGS [r12_1005_TrROS_Hall] | 5.51 ± 0.305 | 7.27 ± 0.18 | 1.88 ± 0.167
SAGGSAGGSKITSIQPHDGFWRIEIKPDGKPQERWINMDELPPNIKIPPGYKVKIEPFSPGDMSAGGSAGGS [r12_1005_TrROS] | -1.09 ± 1.09 | -3.22 ± 3.85 | -0.0618 ± 0.586
SAGGSAGGSKKAEELAKKLGLEVEIVKVEKKKDGSEVVIVKIKNKDGSELTLVVKDGKVELFPSAGGSAGGS [r12_279_TrROS_Hall] | 9.35 ± 0.331 | 10.2 ± 0.305 | 7.5 ± 0.339
SAGGSAGGSKKALVVFYNPETGEVEVLEVEGDADLLKELFEPGTVVEIRVGDEVITIYPEDLKSAGGSAGGS [r20_36_TrMRF] | 8.81 ± 0.243 | 10.1 ± 0.226 | 6.32 ± 0.356
SAGGSAGGSKKIKIKVKVKNPKTKKYYEIEIEISEEELKEGKLTKEQIKKELEKLGYEVEIVPSAGGSAGGS [r20_221_TrROS_Hall] | 12.1 ± 0.397 | 10.9 ± 0.293 | 13.6 ± 0.628
SAGGSAGGSKKKITRIVITDFDPETGKVTVRIRNENGEEETIEVETLEELKELFPDVEVEVIPSAGGSAGGS [r12_403_TrROS_Hall] | 9.37 ± 0.247 | 8.76 ± 0.184 | 10.2 ± 0.205
SAGGSAGGSKKKKIEIIIVMSKEEAEKIAEELKKKYNIKEIKIKVIPLKKNSPKVKELLKKLKSAGGSAGGS [r12_649_TrROS_Hall] | 6.78 ± 1.55 | 8.04 ± 0.502 | 4.33 ± 0.297
SAGGSAGGSKKKKKKVKKKKVYRVKIKTKDGKLIEIEVSVEDLEKIKKAAEKAGFEIVEIEPVSAGGSAGGS [r12_891_TrROS_Hall] | 14.3 ± 0.837 | 16.1 ± 0.753 | 9.99 ± 0.318
SAGGSAGGSKKKKKVKYKIKVINPEKPEVKEIEIEAENEEEAKKLAEELAKKYPGVKVEIEKTSAGGSAGGS [r12_601_TrROS_Hall] | 10.4 ± 0.397 | 12.3 ± 0.268 | 4.52 ± 0.293
SAGGSAGGSKKKPYIIKIYYKDPKTKKKSKKEILVSGKVKNPEKFAKEAAKKLGPVGKVEFKPSAGGSAGGS [r12_942_TrMRF] | 2.25 ± 0.41 | 3.17 ± 0.628 | -0.135 ± 0.351
SAGGSAGGSKKKVKVEIVEYDPETKKVTVRVTVDGKEYEFTFSTPEELEAAAKAGKIDEITLTSAGGSAGGS [r12_421_TrROS_Hall] | 9.45 ± 0.276 | 9.56 ± 0.18 | 9.45 ± 0.247
SAGGSAGGSKKPKAKIKKIEFFPEGNKIVALVEFPDKVIKEIVFENLPPEEAIKKALEFAKKGSAGGSAGGS [r20_181_TrMRF] | 5.5 ± 0.502 | 5.95 ± 0.163 | 4.54 ± 0.151
SAGGSAGGSKKTVLVRITVTLPNGEKREIELEVEVDSVEDLKELLKKLPLPPGMKVTIEVVPASAGGSAGGS [r20_162_TrROS_Hall] | 17.4 ± 1.3 | 14.2 ± 0.837 | 18.7 ± 1.3
SAGGSAGGSKKVEIKVKVKITNENGETLEVTATIVFDEKTGELYIYDEKTGKVYKISLDDIEPSAGGSAGGS [r12_772_TrROS_Hall] | 14.8 ± 0.377 | 16.5 ± 0.322 | 8.48 ± 0.343
SAGGSAGGSKLRLVLKFKTPEEAEEAARKLAEELKKKEGVKEVKVSVVKVNGEYYVVVEVEKESAGGSAGGS [r12_7_TrROS_Hall] | 15.6 ± 1.05 | 17.4 ± 0.46 | 10.6 ± 1.13
SAGGSAGGSKMLLVKVYIEETKEEIVIEVPEGMTLEEIAERLRELGYKIKKIEVYELPPPPEESAGGSAGGS [r12_955_TrROS_Hall] | 17.2 ± 1.26 | 17.8 ± 0.326 | 16 ± 0.753
SAGGSAGGSKMVLKVTLENGKTIEIEAGETIEEIKAKIEEEFGKPVKIKVEKVSAEELGLKPESAGGSAGGS [r12_379_TrROS_Hall] | 5.58 ± 0.711 | 6.64 ± 0.23 | 1.27 ± 0.544
